Experimental data reported in article PMC9174126.

Target: collagen I coupled to the Biacore CM5 chip (UniProt P02452)
Experiment: SPR; Biacore; SPARC-WT and SPARC-Fut8KO on collagen I; responses compared at 300 s; sensorgrams shown in Fig. 2C of Ref. [20]

Sequence of UniProt P02452 (P02452 23-1218, chain 1 of 2): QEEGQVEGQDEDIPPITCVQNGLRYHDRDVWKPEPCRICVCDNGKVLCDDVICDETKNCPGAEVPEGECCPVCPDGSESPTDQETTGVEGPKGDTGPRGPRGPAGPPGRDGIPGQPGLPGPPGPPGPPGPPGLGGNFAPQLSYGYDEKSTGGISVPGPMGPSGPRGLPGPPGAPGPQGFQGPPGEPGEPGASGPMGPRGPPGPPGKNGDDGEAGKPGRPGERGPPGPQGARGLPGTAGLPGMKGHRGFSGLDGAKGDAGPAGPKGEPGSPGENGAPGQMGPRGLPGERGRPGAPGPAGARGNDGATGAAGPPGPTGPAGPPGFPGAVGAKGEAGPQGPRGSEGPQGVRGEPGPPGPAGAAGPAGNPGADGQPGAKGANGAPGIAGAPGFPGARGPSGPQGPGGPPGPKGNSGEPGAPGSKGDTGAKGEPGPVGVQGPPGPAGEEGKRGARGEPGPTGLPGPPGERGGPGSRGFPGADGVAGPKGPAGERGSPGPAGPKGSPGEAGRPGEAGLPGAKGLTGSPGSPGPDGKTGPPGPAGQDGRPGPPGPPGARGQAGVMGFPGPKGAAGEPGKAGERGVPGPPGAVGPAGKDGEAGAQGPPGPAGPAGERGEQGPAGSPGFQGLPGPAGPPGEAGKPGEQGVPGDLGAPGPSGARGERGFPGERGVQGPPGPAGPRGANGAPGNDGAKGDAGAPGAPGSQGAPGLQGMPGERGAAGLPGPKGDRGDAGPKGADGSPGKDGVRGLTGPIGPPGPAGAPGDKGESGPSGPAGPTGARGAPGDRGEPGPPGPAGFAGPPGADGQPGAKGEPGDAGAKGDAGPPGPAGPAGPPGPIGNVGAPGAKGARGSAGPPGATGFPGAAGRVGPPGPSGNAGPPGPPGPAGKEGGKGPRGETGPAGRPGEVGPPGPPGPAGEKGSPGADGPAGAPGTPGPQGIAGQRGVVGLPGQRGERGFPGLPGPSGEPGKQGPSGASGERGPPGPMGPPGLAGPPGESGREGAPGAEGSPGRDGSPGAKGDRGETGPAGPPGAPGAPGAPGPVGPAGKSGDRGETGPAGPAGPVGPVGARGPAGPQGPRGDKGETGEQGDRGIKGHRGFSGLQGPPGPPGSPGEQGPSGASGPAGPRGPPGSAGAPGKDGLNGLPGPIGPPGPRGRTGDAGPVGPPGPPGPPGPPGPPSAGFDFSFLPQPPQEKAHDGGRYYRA
Sequence of UniProt P02452 (P08123 80-1119, chain 2 of 2, further chain): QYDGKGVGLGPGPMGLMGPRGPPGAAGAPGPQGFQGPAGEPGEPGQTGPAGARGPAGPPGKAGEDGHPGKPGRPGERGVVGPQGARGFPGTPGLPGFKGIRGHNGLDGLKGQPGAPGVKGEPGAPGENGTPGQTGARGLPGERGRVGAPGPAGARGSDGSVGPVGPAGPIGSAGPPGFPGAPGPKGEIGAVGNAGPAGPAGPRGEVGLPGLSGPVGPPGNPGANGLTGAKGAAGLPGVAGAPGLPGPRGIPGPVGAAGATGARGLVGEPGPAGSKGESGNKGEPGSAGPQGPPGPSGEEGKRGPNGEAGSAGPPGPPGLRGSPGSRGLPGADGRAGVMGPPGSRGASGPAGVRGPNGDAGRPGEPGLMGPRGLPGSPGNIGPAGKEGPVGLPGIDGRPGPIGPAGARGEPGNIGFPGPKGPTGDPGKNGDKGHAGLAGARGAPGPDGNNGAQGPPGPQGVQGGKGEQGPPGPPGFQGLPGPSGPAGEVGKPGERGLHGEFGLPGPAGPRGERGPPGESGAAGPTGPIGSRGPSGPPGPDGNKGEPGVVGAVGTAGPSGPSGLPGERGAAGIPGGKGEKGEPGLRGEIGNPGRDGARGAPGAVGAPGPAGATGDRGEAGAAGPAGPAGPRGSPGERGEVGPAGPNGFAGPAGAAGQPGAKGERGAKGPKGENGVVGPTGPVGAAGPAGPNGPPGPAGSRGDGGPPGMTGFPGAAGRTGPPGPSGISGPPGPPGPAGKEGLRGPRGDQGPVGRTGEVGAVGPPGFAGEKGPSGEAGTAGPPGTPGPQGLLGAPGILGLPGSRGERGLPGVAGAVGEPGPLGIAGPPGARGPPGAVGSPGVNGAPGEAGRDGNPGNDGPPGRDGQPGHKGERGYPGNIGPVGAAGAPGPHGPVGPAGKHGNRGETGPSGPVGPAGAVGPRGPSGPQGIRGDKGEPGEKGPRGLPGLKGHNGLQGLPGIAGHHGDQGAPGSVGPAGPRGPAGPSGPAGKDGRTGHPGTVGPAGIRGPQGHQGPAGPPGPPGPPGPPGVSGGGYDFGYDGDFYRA

B1: recombinant His-tagged human SPARC from FUT8-knockout HEK-293T cells (SPARC-Fut8KO), not core-fucosylated (natural protein)
chain: APQQEALPDETEVVEETVAEVTEVSVGANPVQVEVGEFDDGAEETEEEVVAENPCQNHHCKHGKVCELDENNTPMCVCQDPTSCPAPIGEFEKVCSNDNKTFDSSCHFFATKCTLEGTKKGHKLHLDYIGPCKYIPPCLDSELTEFPLRMRDWLKNVLVTLYERDEDNNLLTEKQKLRVKKIHENEKRLEAGDHPVELLARDFEKNYNMYIFPVHWQFGQLDQHPIDGYLSHTELAPLRAPLIPMEHCTTRFFETCDLDNDKYIALDEWAGCFGIKQKDIDKDLVI
modifications: not core-fucosylated at N116
binding response (RU) relative to SPARC-WT at 300 s: 40%
